Experimental data taken from patent US20220048967A1 (published 2022).
Numbered stars: 1 amine (or outer) side, 2 acyl side, 3 side chain; on linkers, the order of the positions; unused ones are H or OH. Square brackets hold non-standard residues; d marks the D form. Side chains are listed from the residue outwards. Ends that are not written are not given here. * marks the point of attachment. C18 diacid = O=C(O)CCCCCCCCCCCCCCCCC(=O)*; γGlu = O=C(O)[C@H](CCC(=O)[*:2])N[*:1]; AEEA = NCCOCCOCC(=O)O; Aib = CC(C)(N)C(=O)O

Assays:
[1] = biological target: human GLP-1 receptor (GLP-1R) (human, UniProt P43220 24-463); test: cell-based or functional assay
[2] = biological target: T1, human gastric inhibitory peptide receptor (GIPR) (human, UniProt P48546 22-466); test: cell-based or functional assay
T1 sequence (looked up): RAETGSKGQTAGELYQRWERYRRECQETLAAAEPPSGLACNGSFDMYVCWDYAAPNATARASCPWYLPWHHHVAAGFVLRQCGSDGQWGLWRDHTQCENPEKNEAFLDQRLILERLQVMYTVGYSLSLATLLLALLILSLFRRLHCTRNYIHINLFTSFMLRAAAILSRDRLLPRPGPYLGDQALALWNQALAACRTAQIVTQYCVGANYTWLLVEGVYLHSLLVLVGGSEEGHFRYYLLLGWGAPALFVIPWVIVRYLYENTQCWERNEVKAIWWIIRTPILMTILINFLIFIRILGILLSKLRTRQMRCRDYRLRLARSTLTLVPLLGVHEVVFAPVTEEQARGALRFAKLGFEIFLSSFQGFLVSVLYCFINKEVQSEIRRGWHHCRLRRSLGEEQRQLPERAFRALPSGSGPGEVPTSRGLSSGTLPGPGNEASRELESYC

B1: Example 271 (peptide)
peptide: Y[Aib]EGTFTSDYSILLDKK([AEEA-AEEA-γGlu-C18 diacid])AQ[Aib]EFIEYLIEGG-NH2
modifications: N-terminus assumed
SMILES: CC[C@H](C)[C@H](NC(=O)[C@H](CC(C)C)NC(=O)[C@H](Cc1ccc(O)cc1)NC(=O)[C@H](CCC(=O)O)NC(=O)[C@@H](NC(=O)[C@H](Cc1ccccc1)NC(=O)[C@H](CCC(=O)O)NC(=O)C(C)(C)NC(=O)[C@H](CCC(N)=O)NC(=O)[C@H](C)NC(=O)[C@H](CCCCNC(=O)COCCOCCNC(=O)COCCOCCNC(=O)CC[C@H](NC(=O)CCCCCCCCCCCCCCCCC(=O)O)C(=O)O)NC(=O)[C@H](CCCCN)NC(=O)[C@H](CC(=O)O)NC(=O)[C@H](CC(C)C)NC(=O)[C@H](CC(C)C)NC(=O)[C@@H](NC(=O)[C@H](CO)NC(=O)[C@H](Cc1ccc(O)cc1)NC(=O)[C@H](CC(=O)O)NC(=O)[C@H](CO)NC(=O)[C@@H](NC(=O)[C@H](Cc1ccccc1)NC(=O)[C@@H](NC(=O)CNC(=O)[C@H](CCC(=O)O)NC(=O)C(C)(C)NC(=O)[C@@H](N)Cc1ccc(O)cc1)[C@@H](C)O)[C@@H](C)O)[C@@H](C)CC)[C@@H](C)CC)C(=O)N[C@@H](CCC(=O)O)C(=O)NCC(=O)NCC(N)=O
In the case of B1, the “hGLP1R cAMP EC50 ratio” value [1] is reported as 1.35, the “hGLP1R cAMP Rel EC50” value [1] is reported as 35.2 pM and the “hGIPR cAMP EC50 ratio” value [2] is reported as 0.614. For the same binder, the “hGIPR cAMP Rel EC50” value [2] was 334 pM.

B2: Example 273 (peptide)
peptide: Y[Aib]EGTFTSDYSILLDKK([AEEA-AEEA-γGlu-C18 diacid])AQ[Aib]AFIEYLIAGG-NH2
modifications: N-terminus assumed
SMILES: CC[C@H](C)[C@H](NC(=O)[C@H](CC(C)C)NC(=O)[C@H](Cc1ccc(O)cc1)NC(=O)[C@H](CCC(=O)O)NC(=O)[C@@H](NC(=O)[C@H](Cc1ccccc1)NC(=O)[C@H](C)NC(=O)C(C)(C)NC(=O)[C@H](CCC(N)=O)NC(=O)[C@H](C)NC(=O)[C@H](CCCCNC(=O)COCCOCCNC(=O)COCCOCCNC(=O)CC[C@H](NC(=O)CCCCCCCCCCCCCCCCC(=O)O)C(=O)O)NC(=O)[C@H](CCCCN)NC(=O)[C@H](CC(=O)O)NC(=O)[C@H](CC(C)C)NC(=O)[C@H](CC(C)C)NC(=O)[C@@H](NC(=O)[C@H](CO)NC(=O)[C@H](Cc1ccc(O)cc1)NC(=O)[C@H](CC(=O)O)NC(=O)[C@H](CO)NC(=O)[C@@H](NC(=O)[C@H](Cc1ccccc1)NC(=O)[C@@H](NC(=O)CNC(=O)[C@H](CCC(=O)O)NC(=O)C(C)(C)NC(=O)[C@@H](N)Cc1ccc(O)cc1)[C@@H](C)O)[C@@H](C)O)[C@@H](C)CC)[C@@H](C)CC)C(=O)N[C@@H](C)C(=O)NCC(=O)NCC(N)=O
In the case of B2, the “hGLP1R cAMP EC50 ratio” value [1] is reported as 1.85, the “hGLP1R cAMP Rel EC50” value [1] is reported as 35.2 pM and the “hGIPR cAMP EC50 ratio” value [2] is reported as 2.15. The “hGIPR cAMP Rel EC50” value [2] was 79 pM.

B3: Example 270 (peptide)
peptide: Y[Aib]EGTFTSDYSILLDKK([AEEA-AEEA-γGlu-C18 diacid])AQ[Aib]EFIEYLIEGGPSSG-NH2
modifications: N-terminus assumed
SMILES: CC[C@H](C)[C@H](NC(=O)[C@H](CC(C)C)NC(=O)[C@H](Cc1ccc(O)cc1)NC(=O)[C@H](CCC(=O)O)NC(=O)[C@@H](NC(=O)[C@H](Cc1ccccc1)NC(=O)[C@H](CCC(=O)O)NC(=O)C(C)(C)NC(=O)[C@H](CCC(N)=O)NC(=O)[C@H](C)NC(=O)[C@H](CCCCNC(=O)COCCOCCNC(=O)COCCOCCNC(=O)CC[C@H](NC(=O)CCCCCCCCCCCCCCCCC(=O)O)C(=O)O)NC(=O)[C@H](CCCCN)NC(=O)[C@H](CC(=O)O)NC(=O)[C@H](CC(C)C)NC(=O)[C@H](CC(C)C)NC(=O)[C@@H](NC(=O)[C@H](CO)NC(=O)[C@H](Cc1ccc(O)cc1)NC(=O)[C@H](CC(=O)O)NC(=O)[C@H](CO)NC(=O)[C@@H](NC(=O)[C@H](Cc1ccccc1)NC(=O)[C@@H](NC(=O)CNC(=O)[C@H](CCC(=O)O)NC(=O)C(C)(C)NC(=O)[C@@H](N)Cc1ccc(O)cc1)[C@@H](C)O)[C@@H](C)O)[C@@H](C)CC)[C@@H](C)CC)C(=O)N[C@@H](CCC(=O)O)C(=O)NCC(=O)NCC(=O)N1CCC[C@H]1C(=O)N[C@@H](CO)C(=O)N[C@@H](CO)C(=O)NCC(N)=O
With B3 the “hGLP1R cAMP EC50 ratio” value [1] was 0.4, the “hGLP1R cAMP Rel EC50” value [1] was 128 pM and the “hGIPR cAMP EC50 ratio” value [2] was 0.627. The “hGIPR cAMP Rel EC50” value [2] was 328 pM.

B4: Example 272 (peptide)
peptide: Y[Aib]EGTFTSDYSILLDKK([AEEA-AEEA-γGlu-C18 diacid])AQ[Aib]AFIEYLIAGGPSSG-NH2
modifications: N-terminus assumed
SMILES: CC[C@H](C)[C@H](NC(=O)[C@H](CC(C)C)NC(=O)[C@H](Cc1ccc(O)cc1)NC(=O)[C@H](CCC(=O)O)NC(=O)[C@@H](NC(=O)[C@H](Cc1ccccc1)NC(=O)[C@H](C)NC(=O)C(C)(C)NC(=O)[C@H](CCC(N)=O)NC(=O)[C@H](C)NC(=O)[C@H](CCCCNC(=O)COCCOCCNC(=O)COCCOCCNC(=O)CC[C@H](NC(=O)CCCCCCCCCCCCCCCCC(=O)O)C(=O)O)NC(=O)[C@H](CCCCN)NC(=O)[C@H](CC(=O)O)NC(=O)[C@H](CC(C)C)NC(=O)[C@H](CC(C)C)NC(=O)[C@@H](NC(=O)[C@H](CO)NC(=O)[C@H](Cc1ccc(O)cc1)NC(=O)[C@H](CC(=O)O)NC(=O)[C@H](CO)NC(=O)[C@@H](NC(=O)[C@H](Cc1ccccc1)NC(=O)[C@@H](NC(=O)CNC(=O)[C@H](CCC(=O)O)NC(=O)C(C)(C)NC(=O)[C@@H](N)Cc1ccc(O)cc1)[C@@H](C)O)[C@@H](C)O)[C@@H](C)CC)[C@@H](C)CC)C(=O)N[C@@H](C)C(=O)NCC(=O)NCC(=O)N1CCC[C@H]1C(=O)N[C@@H](CO)C(=O)N[C@@H](CO)C(=O)NCC(N)=O
For B4, the “hGLP1R cAMP EC50 ratio” value [1] was 1.19, the “hGLP1R cAMP Rel EC50” value [1] was 43.5 pM and the “hGIPR cAMP EC50 ratio” value [2] was 2.97. For the same binder, the “hGIPR cAMP Rel EC50” value [2] was 46.4 pM.

B5: Example 274 (peptide)
peptide: Y[Aib]EGTFTSDYSILLDKK([AEEA-AEEA-γGlu-C18 diacid])AQPAFIEYLIEGGPSSG-NH2
modifications: N-terminus assumed
SMILES: CC[C@H](C)[C@H](NC(=O)[C@H](CC(C)C)NC(=O)[C@H](Cc1ccc(O)cc1)NC(=O)[C@H](CCC(=O)O)NC(=O)[C@@H](NC(=O)[C@H](Cc1ccccc1)NC(=O)[C@H](C)NC(=O)[C@@H]1CCCN1C(=O)[C@H](CCC(N)=O)NC(=O)[C@H](C)NC(=O)[C@H](CCCCNC(=O)COCCOCCNC(=O)COCCOCCNC(=O)CC[C@H](NC(=O)CCCCCCCCCCCCCCCCC(=O)O)C(=O)O)NC(=O)[C@H](CCCCN)NC(=O)[C@H](CC(=O)O)NC(=O)[C@H](CC(C)C)NC(=O)[C@H](CC(C)C)NC(=O)[C@@H](NC(=O)[C@H](CO)NC(=O)[C@H](Cc1ccc(O)cc1)NC(=O)[C@H](CC(=O)O)NC(=O)[C@H](CO)NC(=O)[C@@H](NC(=O)[C@H](Cc1ccccc1)NC(=O)[C@@H](NC(=O)CNC(=O)[C@H](CCC(=O)O)NC(=O)C(C)(C)NC(=O)[C@@H](N)Cc1ccc(O)cc1)[C@@H](C)O)[C@@H](C)O)[C@@H](C)CC)[C@@H](C)CC)C(=O)N[C@@H](CCC(=O)O)C(=O)NCC(=O)NCC(=O)N1CCC[C@H]1C(=O)N[C@@H](CO)C(=O)N[C@@H](CO)C(=O)NCC(N)=O
With B5 the “hGLP1R cAMP EC50 ratio” value [1] was 0.00353, the “hGLP1R cAMP Rel EC50” value [1] was 14500 pM and the “hGIPR cAMP EC50 ratio” value [2] was < 0.00741. The “hGIPR cAMP Rel EC50” value [2] was > 30000 pM.

B6: Example 269 (peptide)
peptide: Y[Aib]EGTFTSDYSILLDEK([AEEA-AEEA-γGlu-C18 diacid])AQ[Aib]AFIEYLIEGG-NH2
modifications: N-terminus assumed
SMILES: CC[C@H](C)[C@H](NC(=O)[C@H](CC(C)C)NC(=O)[C@H](Cc1ccc(O)cc1)NC(=O)[C@H](CCC(=O)O)NC(=O)[C@@H](NC(=O)[C@H](Cc1ccccc1)NC(=O)[C@H](C)NC(=O)C(C)(C)NC(=O)[C@H](CCC(N)=O)NC(=O)[C@H](C)NC(=O)[C@H](CCCCNC(=O)COCCOCCNC(=O)COCCOCCNC(=O)CC[C@H](NC(=O)CCCCCCCCCCCCCCCCC(=O)O)C(=O)O)NC(=O)[C@H](CCC(=O)O)NC(=O)[C@H](CC(=O)O)NC(=O)[C@H](CC(C)C)NC(=O)[C@H](CC(C)C)NC(=O)[C@@H](NC(=O)[C@H](CO)NC(=O)[C@H](Cc1ccc(O)cc1)NC(=O)[C@H](CC(=O)O)NC(=O)[C@H](CO)NC(=O)[C@@H](NC(=O)[C@H](Cc1ccccc1)NC(=O)[C@@H](NC(=O)CNC(=O)[C@H](CCC(=O)O)NC(=O)C(C)(C)NC(=O)[C@@H](N)Cc1ccc(O)cc1)[C@@H](C)O)[C@@H](C)O)[C@@H](C)CC)[C@@H](C)CC)C(=O)N[C@@H](CCC(=O)O)C(=O)NCC(=O)NCC(N)=O
For B6, the “hGLP1R cAMP EC50 ratio” value [1] was 0.828, the “hGLP1R cAMP Rel EC50” value [1] was 59.5 pM and the “hGIPR cAMP EC50 ratio” value [2] was 0.825. The “hGIPR cAMP Rel EC50” value [2] was 257 pM.
